Source: the supplement of paper PMC10724198
± gives the standard deviation of the averaged measurements.

Test system: Saccharomyces cerevisiae
Experiment: protein stability index of tFT-peptide fusion (C-terminal peptide) (PSI (0-1 scale)); higher = more stable (slower turnover)
Settings: genetic background: wild type; temperature: 30 C
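Note: PSI is a weighted mean of sequencing reads over stability bins, variants kept only with over 10 reads, mCherry proximal and sfGFP distal, peptide attached via GGGS linker.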

Sequence | protein stability index
KKKDRENIKNKI | 0.7151 ± 0.0068
KKKEENGGRGDE | 0.7008 ± 0.0041
KKKKDQQQELKN | 0.657 ± 0.032
KKKKEKKETKKK | 0.67 ± 0.028
KKKKEKKYKERY | 0.721 ± 0.13
KKKKGKKRRTRK | 0.72 ± 0.041
KKKKKIKKKHNK | 0.6859 ± 0.001
KKKKKKGKGAKT | 0.617 ± 0.011
KKKKKKKKKKTR | 0.6407 ± 0.0016
KKKKKKKKTNKK | 0.762 ± 0.084
KKKKKKKRNKHN | 0.706 ± 0.048
KKKKKKNKKTKN | 0.711 ± 0.045
KKKKKKQQKKRK | 0.686 ± 0.039
KKKKKKTKKKNK | 0.719 ± 0.016
KKKKKKVRYIRI | 0.671 ± 0.046
KKKKKQKDTKHR | 0.682 ± 0.018
KKKKKQKKKKKK | 0.643 ± 0.048
KKKKKQTKGKNK | 0.688 ± 0.12
KKKKKRKKKKEK | 0.683 ± 0.044
KKKKKTKKKAEK | 0.701 ± 0.022
KKKKPKKKTQKS | 0.713 ± 0.04
KKKKQNKRKRKT | 0.635 ± 0.0086
KKKKQRKQEKKI | 0.642 ± 0.008
KKKKREKSKHRK | 0.714 ± 0.022
KKKKRIQEKEII | 0.63 ± 0.015
KKKKRKIPKKKK | 0.635 ± 0.11

Sequence | protein stability index
KKKKTEIKRNKT | 0.689 ± 0.026
KKKKTKKKTNSI | 0.727 ± 0.0076
KKKKTKYIKRKK | 0.701 ± 0.18
KKKKTQKKKTKQ | 0.668 ± 0.019
KKKKTVHKKNRR | 0.699 ± 0.022
KKKLKYKGIRTN | 0.679 ± 0.049
KKKNNRITVFKV | 0.636 ± 0.067
KKKQKYRREEKE | 0.724 ± 0.051
KKKQPKKNQNPT | 0.767 ± 0.075
KKKRKKSKKKKK | 0.642 ± 0.1
KKKRRFTQEMDK | 0.684 ± 0.17
KKKTKNGKEKRR | 0.7 ± 0.019
KKLRNKKGKRYA | 0.645 ± 0.086
KKLSSRTQGLHG | 0.746 ± 0.059
KKLSTYSVIEKS | 0.601 ± 0.042
KKMKEKKKRNHA | 0.712 ± 0.035
KKNKAKRKKYIV | 0.616 ± 0.03
KKNKHKEKIKKK | 0.723 ± 0.069
KKQKKHKKEKEK | 0.638 ± 0.019
KKQKKKKSTKRN | 0.722 ± 0.038
KKQRKRTKRKRK | 0.693 ± 0.048
KKREEVKKNIKI | 0.681 ± 0.019
KKRERNDKRGCQ | 0.652 ± 0.024
KKRKKKKQTKRK | 0.691 ± 0.022
KKRKKKRTEPQP | 0.6421 ± 0.00099
KKRKNNKIRKKK | 0.723 ± 0.0053

Sequence | protein stability index
KKRTTKEKKQHK | 0.693 ± 0.033
KKSQKSKNKTHN | 0.571 ± 0.0066
KKTEGATEERKR | 0.692 ± 0.015
KKTIENEGRNIL | 0.645 ± 0.0069
KKTIEQNNLTIV | 0.7091 ± 0.002
KLGWSVTRAEVN | 0.687 ± 0.017
KLKITSKDKIIK | 0.671 ± 0.016
KLLRPMVLPQRT | 0.615 ± 0.02
KLSIKNLFDLLY | 0.691 ± 0.033
KLTVPTKTIVHT | 0.651 ± 0.03
KLVGASVYECQR | 0.672 ± 0.012
KMGTEEGRVWVG | 0.651 ± 0.054
KMVTRKKNEEKD | 0.6328 ± 0.0029
KNEKEKKTKMRN | 0.754 ± 0.14
KNGLERFTSNRS | 0.641 ± 0.051
KNKQSKNKSKRK | 0.712 ± 0.038
KNKTRSEISKNS | 0.6974 ± 0.0017
KNNSKKRKLKPR | 0.718 ± 0.14
KNRKKIKIVCVK | 0.559 ± 0.026
KNRKTQSNQTKI | 0.719 ± 0.025
KNSNIDKMIRKE | 0.6973 ± 0.0012
KNTRIKKMKRRT | 0.827 ± 0.097
KNTVRKCNGRMH | 0.57 ± 0.063
KPRKEKRGLVNS | 0.664 ± 0.039
KPSHNEARKKGG | 0.681 ± 0.014
KQGKKKDEWTRG | 0.6945 ± 0.0023

Sequence | protein stability index
KQKIKKRIKKTI | 0.6958 ± 0.0029
KQKIKTDKYKKD | 0.656 ± 0.051
KQKLEGTIIREL | 0.674 ± 0.024
KQRENMCRCARE | 0.712 ± 0.074
KQRTRKYLNSRN | 0.654 ± 0.12
KRDNKNKDKQKK | 0.7 ± 0.024
KREKKNTYIKKV | 0.671 ± 0.04
KREQKPHPKLKL | 0.5682 ± 0.0021
KRGGRGEKAEGK | 0.655 ± 0.024
KRGRISKKRDSS | 0.759 ± 0.017
KRGSREQQRYWK | 0.659 ± 0.027
KRIGLGEERQKR | 0.57 ± 0.078
KRIIRSYHFLGC | 0.698 ± 0.047
KRIKTEKRRSKK | 0.748 ± 0.046
KRILKEKRRKKN | 0.658 ± 0.036
KRITLNADIIIK | 0.629 ± 0.11
KRKHQSPLLNTR | 0.705 ± 0.021
KRKQDKEAEKKS | 0.704 ± 0.019
KRKREKKEKADA | 0.66 ± 0.043
KRLCTYRMIGSL | 0.521 ± 0.0089
KRLNRVHRSTKV | 0.687 ± 0.021
KRNSLSLIPQII | 0.655 ± 0.071
KRPVTPTFGRLQ | 0.645 ± 0.067
KRQKENRKNKKI | 0.704 ± 0.019
KRRRWFILSGPL | 0.685 ± 0.008
KRSGEGREKIRK | 0.703 ± 0.028

Sequence | protein stability index
KRSIVSTDKDRY | 0.603 ± 0.045
KRVIVRLASYAS | 0.55909 ± 2.1e-05
KSGVWLWGGGGG | 0.724 ± 0.032
KSKKERREKKKA | 0.665 ± 0.031
KSKKNKTEKTKE | 0.665 ± 0.027
KSKKRERDETKK | 0.645 ± 0.033
KSKQKNKTQVKN | 0.66 ± 0.023
KSPSTRATTHTY | 0.678 ± 0.028
KSRLYVDVLMQR | 0.659 ± 0.077
KSRTRNNVSRVG | 0.6703 ± 0.0062
KSVVRLPHLPLE | 0.695 ± 0.02
KTDNTRTQKMVR | 0.808 ± 0.011
KTEEERKKAEKE | 0.653 ± 0.076
KTGEKIKKNNIK | 0.692 ± 0.059
KTKERKKQMRKI | 0.6822 ± 0.0042
KTKKKNKKDQKM | 0.6661 ± 0.0047
KTKKKRKQKGKQ | 0.684 ± 0.064
KTKKRKTKKKTK | 0.723 ± 0.036
KTKKTKRRHKAE | 0.662 ± 0.022
KTKNIKTKDKPE | 0.673 ± 0.024
KTKSKNGNQRAT | 0.711 ± 0.025
KTQKKKKKNKNF | 0.51 ± 0.028
KTVKNGKEVKIH | 0.635 ± 0.12
KTVVYDDRKQLR | 0.674 ± 0.0096
KVAILAIPKCWT | 0.644 ± 0.022
KVDRREGSRGGG | 0.6816 ± 0.004

Sequence | protein stability index
KVGLGGRLQSYP | 0.6338 ± 0.0054
KVKGGELVRTLR | 0.736 ± 0.021
KVSPTAGLTSRI | 0.711 ± 0.061
KVSSCLTNFILV | 0.552 ± 0.029
KVVSGLKSGPVQ | 0.677 ± 0.055
KWSETGQDGIER | 0.701 ± 0.081
KYIKNKKEKTEE | 0.701 ± 0.017
KYISKKKKEKKK | 0.684 ± 0.06
KYPVDHHTPLSS | 0.703 ± 0.021
LAARRHRACPPR | 0.67 ± 0.014
LAASVTERPAGR | 0.703 ± 0.011
LAAWQPTSYASV | 0.592 ± 0.092
LACLPPLLLFSL | 0.539 ± 0.00097
LADSLILWRFPT | 0.722 ± 0.087
LAEFTCTQGCSY | 0.67 ± 0.088
LAFGLGSFVWNC | 0.6765 ± 0.00075
LAKVNSLLGFSK | 0.734 ± 0.037
LALDPVNLVTSL | 0.682 ± 0.051
LAPLRGHDHSRA | 0.6638 ± 0.0055
LARLFQLLERPW | 0.688 ± 0.063
LATIPTFPPLPP | 0.634 ± 0.089
LCAFPFSHPSSI | 0.74 ± 0.05
LCGAFLPPPFSR | 0.686 ± 0.052
LCGLDCLLRPCY | 0.681 ± 0.011
LCGYAMSFRPLG | 0.73 ± 0.091
LCHLSSFLAALS | 0.618 ± 0.012

Sequence | protein stability index
LCILIFLFRCIL | 0.551 ± 0.036
LCLDHAKQNPGK | 0.6641 ± 0.0051
LCLRPVISLPHL | 0.716 ± 0.075
LCPLPPPTVPLP | 0.742 ± 0.02
LCPVLRSPFFLF | 0.55128 ± 0.00052
LCVAFWLGLPTT | 0.598 ± 0.011
LCVGQVGLWVGR | 0.703 ± 0.042
LCYLPLTLPPVL | 0.582 ± 0.036
LDEQIKIRIKEK | 0.721 ± 0.046
LDFSAWRYGRSW | 0.83 ± 0.038
LDGLFWHRPCFK | 0.734 ± 0.061
LDLSIKNPIKWR | 0.747 ± 0.089
LDQQKSCHLIFL | 0.663 ± 0.033
LDSPGIDRRSFM | 0.737 ± 0.064
LEGGACFGVCEW | 0.6956 ± 0.0048
LERDRLINVLPI | 0.726 ± 0.042
LESEDDRKLSLL | 0.659 ± 0.011
LETETKKPQNQK | 0.724 ± 0.11
LFCLCYDVCVPS | 0.662 ± 0.035
LFCVSGSRPLTF | 0.714 ± 0.034
LFFLRFSHFFVG | 0.605 ± 0.014
LFFRVLDRLGEI | 0.726 ± 0.021
LFGAIPRVEHAD | 0.718 ± 0.088
LFGNPVLSYFVI | 0.5549 ± 0.0053
LFLARLSGHFGA | 0.728 ± 0.16
LFLCSGWVACWW | 0.498 ± 0.013

Sequence | protein stability index
LFLGLLLMNDWL | 0.774 ± 0.096
LFLLPPLLPLPP | 0.7361 ± 0.00058
LFLPYLPPRPLL | 0.7642 ± 0.0064
LFLTPTSPVAAL | 0.651 ± 0.065
LFLVWSLGSGRN | 0.672 ± 0.098
LFPGSHHLSRFF | 0.7587 ± 0.005
LFPIYFVCNYSA | 0.508 ± 0.0075
LFPRFPPPAPPL | 0.723 ± 0.099
LFPRPSILKGVP | 0.657 ± 0.091
LFPSSGTRLTPS | 0.667 ± 0.027
LFPVTAIACRPS | 0.7266 ± 0.006
LFRPNWLPLSNN | 0.634 ± 0.018
LFRPSPPRPLPP | 0.651 ± 0.0071
LFRRPSVVFLFV | 0.496 ± 0.062
LFSFCQGCISFC | 0.715 ± 0.02
LFSPPPPPIPSP | 0.73 ± 0.0078
LFSRSSHGRFLT | 0.624 ± 0.041
LFSSPPSLPPPL | 0.739 ± 0.036
LFSVLLFFFFHL | 0.522 ± 0.069
LGACGWVDWWGL | 0.774 ± 0.0083
